Data from patent publication US20040224408A1, “THAP proteins as nuclear receptors for chemokines and roles in transcriptional regulation, cell proliferation and cell differentiation” (published 2004).

Assays:
[1] = target: T1, THAP1-C2 deletion mutant (amino acids 120-213) (human, UniProt Q9NVV9 120-213); assay: yeast two-hybrid, pGBKT7-THAP1 mutant with pGADT7-Par4DD
T1 construct: Tested as a Gal4-BD or Gal4-AD fusion, as in vitro translated 35S-labelled protein and as an EGFP fusion
T1 sequence: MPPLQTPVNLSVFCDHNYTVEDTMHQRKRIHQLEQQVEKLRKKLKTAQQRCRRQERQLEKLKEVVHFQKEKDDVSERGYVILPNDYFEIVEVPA
Experimental: (§1) Two-hybrid interaction between THAP1 mutants and Par4DD was tested by cotransformation of AH109 with pGBKT7-THAP1-C1, -C2, -C3, -N1, -N2 or -N3 and pGADT7-Par4DD and selection of transformants by His and Ade double auxotrophy according to manufacturer's instructions ([…] two-hybrid system 3, Clontech).

[2] = target: T2, THAP1-C3 deletion mutant (amino acids 143-213) (human, UniProt Q9NVV9 143-213); assay: as above
T2 construct: Tested as a Gal4-BD or Gal4-AD fusion, as in vitro translated 35S-labelled protein and as an EGFP fusion
T2 sequence: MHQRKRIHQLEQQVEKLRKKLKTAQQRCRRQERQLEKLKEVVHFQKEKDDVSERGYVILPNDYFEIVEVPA
Experimental: as §1

[3] = target: T3, THAP1-C1 deletion mutant (amino acids 90-213) (human, UniProt Q9NVV9 90-213); assay: as above
T3 construct: Tested as a Gal4-BD or Gal4-AD fusion, as in vitro translated 35S-labelled protein and as an EGFP fusion; also called THAP1ΔTHAP; THAP1?THAP
T3 sequence: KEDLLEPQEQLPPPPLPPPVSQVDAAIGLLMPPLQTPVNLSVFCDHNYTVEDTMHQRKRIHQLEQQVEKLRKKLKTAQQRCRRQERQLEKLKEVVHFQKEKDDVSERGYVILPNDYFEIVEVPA
Experimental: as §1

[4] = target: T4, THAP1-N3 deletion mutant (amino acids 1-192) (human, UniProt Q9NVV9 1-192); assay: as above
T4 construct: Tested as a Gal4-BD or Gal4-AD fusion, as in vitro translated 35S-labelled protein and as an EGFP fusion
T4 sequence: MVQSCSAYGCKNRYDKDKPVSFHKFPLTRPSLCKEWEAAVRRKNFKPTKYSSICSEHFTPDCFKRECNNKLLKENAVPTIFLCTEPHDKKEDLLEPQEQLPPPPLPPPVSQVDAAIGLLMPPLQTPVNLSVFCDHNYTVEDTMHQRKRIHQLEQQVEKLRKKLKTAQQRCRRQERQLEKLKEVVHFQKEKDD
Experimental: as §1

[5] = target: T5, THAP1-N2 deletion mutant (amino acids 1-166) (human, UniProt Q9NVV9 1-166); assay: as above
T5 construct: Tested as a Gal4-BD or Gal4-AD fusion, as in vitro translated 35S-labelled protein and as an EGFP fusion
T5 sequence: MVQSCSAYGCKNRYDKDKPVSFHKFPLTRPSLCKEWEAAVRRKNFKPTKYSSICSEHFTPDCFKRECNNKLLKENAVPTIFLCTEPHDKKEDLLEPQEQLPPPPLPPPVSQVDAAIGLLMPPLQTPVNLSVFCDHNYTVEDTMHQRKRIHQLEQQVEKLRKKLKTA
Experimental: as §1

[6] = target: T6, THAP1-N1 deletion mutant (amino acids 1-90) (human, UniProt Q9NVV9 1-90); assay: as above
T6 construct: Tested as a Gal4-BD or Gal4-AD fusion, as in vitro translated 35S-labelled protein and as an EGFP fusion
T6 sequence: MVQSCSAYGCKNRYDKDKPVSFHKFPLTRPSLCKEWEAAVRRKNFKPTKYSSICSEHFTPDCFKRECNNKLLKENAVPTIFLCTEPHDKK
Experimental: as §1

[7] = target: T7, THAP1ΔQRCRR mutant (deletion of residues 168-172) (human, UniProt Q9NVV9 1-213); assay: yeast two-hybrid
T7 construct: Tested as a Gal4-BD fusion (pGBKT7), as in vitro translated protein and as an EGFP fusion; also called THAP1?QRCRR; THAP1?(QRCRR)
T7 sequence: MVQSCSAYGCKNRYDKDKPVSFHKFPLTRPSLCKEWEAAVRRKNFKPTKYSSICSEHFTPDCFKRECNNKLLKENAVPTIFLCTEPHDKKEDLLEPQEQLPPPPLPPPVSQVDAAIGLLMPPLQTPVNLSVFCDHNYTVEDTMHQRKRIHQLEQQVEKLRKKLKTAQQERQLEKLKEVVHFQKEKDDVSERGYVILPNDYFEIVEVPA
Experimental: as §1
for mutant THAP1ΔQRCRR. The resulting PCR fragments were digested with EcoRI and BamHI, and cloned in frame downstream of the Gal4 Binding Domain (Gal4-BD) in pGBKT7 two-hybrid vector (Clontech) to generate pGBKT7-THAP1-RR/AA and −Δ(QRCRR), or downstream of the Enhanced Green Fluorescent Protein (EGFP) ORF in pEGFP.C2 vector (Clontech) to generate pEGFP.C2-THAP1-RR/AA and −Δ(QRCRR). THAP1 RR/AA and THAP1ΔQRCRR THAP1 mutants were then tested in the three THAP1/Par4 interaction assays (two-hybrid assay, in vitro THAP1/Par4 interaction assay, in vivo THAP1/Par4 interaction assay) as described above for the THAP1-C1, -C2, -C3, -N1, -N2 or -N3 mutants.

human THAP1 (THanatos …) = target: T8, human THAP1 (THanatos (death)-Associated Protein-1), full length (human, UniProt Q9NVV9 1-213); assay: yeast two-hybrid, both orientations (His/Ade selection)
T8 construct: also called hTHAP1; FLJ10477
T8 sequence: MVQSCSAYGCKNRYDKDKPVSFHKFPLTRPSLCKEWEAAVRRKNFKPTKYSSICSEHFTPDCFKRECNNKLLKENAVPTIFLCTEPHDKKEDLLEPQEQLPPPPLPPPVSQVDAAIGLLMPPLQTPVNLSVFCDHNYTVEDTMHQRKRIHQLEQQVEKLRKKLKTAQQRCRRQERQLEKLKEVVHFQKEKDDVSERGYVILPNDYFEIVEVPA
Description: We then examined whether the leucine zipper/death domain at the C-terminus of Par4, previously shown to be involved in Par4 binding to WT-1 and aPKC, was required for the interaction between THAP1 and Par4. Two Par4 mutants were constructed for that purpose, Par4A and Par4DD. Par4A lacks the leucine zipper/death domain while Par4DD contains this domain. pGBKT7-Par4A(amino acids 1-276) and pGADT7-Par4A. were constructed by sub-cloning a EcoRI-BglII fragment from pGADT7-Par4 into the EcoRI and BamHI sites of pGBKT7 and pGADT7. Par4DD (amino acids 250-342) was amplified by PCR, using pGBKT7-Par4 as template, with primers Par4.4 (5′-[…]-3′) (SEQ ID NO: 193) and Par4.5, and cloned into the EcoRI and BamHI sites of pGBKT7 and pGADT7 to obtain pGBKT7-Par4DD and pGADT7-Par4DD. Two-hybrid interaction between THAP1 and Par4 mutants was tested by cotransformation of AH109 with pGBKT7-THAP1 and pGADT7-Par4A or pGADT7-Par4DD and selection of transformants by His and Ade double auxotrophy according to manufacturer's instructions ([…] two-hybrid system 3, Clontech). […] Similar results were obtained when two-hybrid experiments were performed in the opposite orientation using Par4 or Par4 mutants (Par4A and Par4DD) as baits instead of THAP1 (FIG. 3A).

[8] = target: T7, THAP1ΔQRCRR mutant (deletion of …); assay: in vitro THAP1/Par4 interaction assay (GST pull-down with GST-Par4DD)
Experimental: (§2) THAP1 mutants were also tested in the in vitro THAP1/Par4 interaction assay. In vitro-translated THAP1 mutants were generated with the TNT-coupled reticulocyte lysate system (Promega, Madison, Wis., USA) using pGBKT7-THAP1-C1, -C2, -C3, -N1, -N2 or -N3 vector as template. 25 μl of each ³⁵S-labelled THAP1 mutant was incubated with immobilized GST or GST-Par4 protein overnight at 4° C., in the following binding buffer: 10 mM NaPO4 pH 8.0, 140 mM NaCl, 3 mM MgCl2, 1 mM dithiothreitol (DTT), 0.05% NP40, and 0.2 mM phenylmethyl sulphonyl fluoride (PMSF), 1 mM Na Vanadate, 50 mM β Glycerophosphate, 25 μg/ml chimotrypsine, 5 μg/ml aprotinin, 10 μg/ml Leupeptin. Beads were then washed 5 times in 1 ml binding buffer. Bound proteins were eluted with 2×Laemmli SDS-PAGE sample buffer, fractionated by 10% SDS-PAGE and visualized by fluorography using Amplify (Amersham Pharmacia Biotech). As expected, THAP1-C1, -C2, -C3, -and -N3 interacted with GST/Par4DD (FIG. 4B).
for mutant THAP1ΔQRCRR. The resulting PCR fragments were digested with EcoRI and BamHI, and cloned in frame downstream of the Gal4 Binding Domain (Gal4-BD) in pGBKT7 two-hybrid vector (Clontech) to generate pGBKT7-THAP1-RR/AA and −Δ(QRCRR), or downstream of the Enhanced Green Fluorescent Protein (EGFP) ORF in pEGFP.C2 vector (Clontech) to generate pEGFP.C2-THAP1-RR/AA and −Δ(QRCRR). […]

[9] = target: T5, THAP1-N2 deletion mutant (amino acids …); assay: GST pull-down, immobilized GST-Par4DD, in vitro translated 35S-labelled mutant
Experimental: as §2

[10] = target: T6, THAP1-N1 deletion mutant (amino acids …); assay: as above
Experimental: as §2

THAP1 THAP domain = target: T9, THAP1 THAP domain (Homo sapiens, UniProt Q9NVV9 SEQ:1-90); assay: EMSA; 20 mM Tris-HCl pH 7.5, 100 mM KCl, poly(dI-dC), room temperature; abrogated by 1,10-phenanthroline, restored by Zn; self-competed by 50-250x unlabelled probe; conditions: tags: C-terminal His6 (pET-21c); label: 32P
T9 sequence: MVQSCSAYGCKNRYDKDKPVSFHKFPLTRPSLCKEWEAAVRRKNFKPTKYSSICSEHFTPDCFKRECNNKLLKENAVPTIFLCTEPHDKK
Experimental: Binding reactions were carried out for 10 minutes at room temperature in 20 μl binding buffer (20 mM Tris-HCl pH 7.5, 100 mM KCl, 0.1% NP-40, 100 μg/ml BSA, 2.5 mM DTT, 5% glycerol, 200 ng poly (dI-dC)). Electrophoresis was performed on 8% (29:1) polyacrylamide gels containing 5% glycerol. Gels were run in 0.25×TBE at 150V and 4° C., dried and exposed on a phosphoimager screen (Molecular Dynamics). Sequences of wild type and mutant THRE oligonucleotides used in EMSA experiments were as follow (mutations are indicated in bold): wild-type probe 3, 5′-[…]-3′ (SEQ ID NO: 313); mutant probe 3mut1, 5′-[…]-3′ (SEQ ID NO: 314); mutant probe 3mut3, 5′-[…]-3′ (SEQ ID NO: 319); mutant probe 3mut4, 5′-[…]-3′ (SEQ ID NO: 320); mutant probe 3mut14, 5′-[…]-3′ (SEQ ID NO: 321); mutant probe 3mut5, 5′-[…]-3′ (SEQ ID NO: 322).
For competition experiments, 50-, 150-, and 250-fold molar excess of unlabelled wild-type (THRE competitor, probe 3) or mutant (non-specific competitor, probe 3mut1) THRE oligonucleotides were added to the reaction mixture just before the addition of the probe.
Since the THAP domain is characterized by a C2-CH conserved motif that may function as a Zn-binding site, we then determined whether DNA-binding activity of the THAP domain is Zn-dependent. […]

B1: Par4 leucine zipper/death domain (Par4DD, amino acids 250-342) (other)
chain: GFPRYNRDANVSGTLVSSSTLEKKIEDLEKEVVTERQENLRLVRLMQDKEEMIGKLKEEIDLLNRDLDDIEDENEQLKQENKTLLKVVGQLTR
notes: also called myc-Par4DD; mycPar4DD
**Q.** Does B1 bind [1]?
**A.** binds

**Q.** Does B1 bind [2]?
**A.** binds

**Q.** Does B1 bind [3]?
**A.** binds

**Q.** Does B1 bind [4]?
**A.** binds

**Q.** Does B1 bind [5]?
**A.** no binding

**Q.** Does B1 bind [6]?
**A.** no binding

**Q.** Does B1 bind [7]?
**A.** no binding

**Q.** Does B1 bind (human THAP1 (THanatos …))?
**A.** binds

B2: GST-Par4DD fusion protein (pGEX-2T-Par4DD, Par4 amino acids 250-342) (other)
chain: GFPRYNRDANVSGTLVSSSTLEKKIEDLEKEVVTERQENLRLVRLMQDKEEMIGKLKEEIDLLNRDLDDIEDENEQLKQENKTLLKVVGQLTR
notes: Expressed in E. coli DH5alpha and immobilized on glutathione sepharose; not shown: Glutathione S-transferase (GST) encoded by the pGEX-2T prokaryotic expression vector (Amersham Pharmacia Biotech); N-ter
**Q.** What does the source list for B2?
**A.** binding result [8]: no binding; binding result [9]: no binding; binding result [10]: no binding

B3: wild-type THRE probe 3 (dsDNA)
DNA 1: AGCAAGTAAGGGCAAACTACTTCAT
DNA 2: ATGAAGTAGTTTGCCCTTACTTGCT
**Q.** Does B3 bind (THAP1 THAP domain)?
**A.** binds
